# Conditions: ubiquitination at K57
Substance,degradation_or_half_life,enzymatic_activity
ALKBH5: K57R,increases,–
"ALKBH5: K57R (purified FLAG-tagged protein, in vitro demethylation assay)",–,no change

# Reference: publication PMC10424212
